In the supplement of paper PMC9170038:

How the values were obtained:
Settings in all cases: FMN input: 0 or 200 uM; Eterna round: R93 (includes R88 designs)
[1] = test system: MS2 coat protein; assay: apparent KD of MS2 coat protein, switch ON state; designed switch direction (-1 OFF switch, 1 ON switch): 1; higher = weaker reporter binding
Summary of the method: (§1)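 Apparent KD per design is the median of normalised cluster binding-curve fits. Designed RNA switches transcribed on-chip from Illumina sequencing clusters were titrated with SNAP-549-labelled MS2 coat protein in twofold steps from 0.7 or 1.5 nM to 3 µM, with 0.8–1.5 h down to 10–20 min per step. Buffer: 100 mM Tris-HCl pH 7.5, 80 mM KCl, 4 mM MgCl2, without or with constant ligand.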

[2] = test system: MS2 coat protein; assay: apparent KD of MS2 coat protein, switch OFF state (with FMN for OFF switches, without FMN for ON switches); designed switch direction (-1 OFF switch, 1 ON switch): 1; higher = weaker reporter binding
Summary of the method: as §1

[3] = test system: MS2 coat protein; assay: apparent KD of MS2 coat protein, switch ON state; designed switch direction (-1 OFF switch, 1 ON switch): -1; higher = weaker reporter binding
Summary of the method: as §1

[4] = test system: MS2 coat protein; assay: apparent KD of MS2 coat protein, switch OFF state (with FMN for OFF switches, without FMN for ON switches); designed switch direction (-1 OFF switch, 1 ON switch): -1; higher = weaker reporter binding
Summary of the method: as §1

## AAAAAAAAAACUCAGGAUAUAGAUUGUUGAACAUGAGGAUCACCCAUGUAGUGAAAAGCGAAAAACUAGAAGGGAGGAAAAAAAAA [SameState2-03]
[1]
  apparent KD of MS2 coat protein: 30.5 nM
[2]
  apparent KD of MS2 coat protein: 63.3 nM

## AAAAAAAAAGUCGAGGAUAUCCACAUGGUGACAUGAGGAUCACCCAUGUGAAGAAAAGCACAUGAGGAGAAGGCGACAAAAAAAA [Same State 2.7b (Tightrope mod)]
[1]
  apparent KD of MS2 coat protein: 135 nM
[2]
  apparent KD of MS2 coat protein: 1110 nM

## AAAAAACAUGAGGAUCACCCAUGUAAAAAAAUGGGAGGAUAUACAAAGACGAAAGUCAAAGUAGAAGGCCUGAAAA [same state 4]
[1]
  apparent KD of MS2 coat protein: 29.8 nM
[2]
  apparent KD of MS2 coat protein: 105 nM

## AAAAAACAUGAGGAUCACCCAUGUCAAAAGACGUGAGGAUAUGUACAGACUUCGGUCUGUACAGAAGGCACGUAAA [SS1 - 1039]
[1]
  apparent KD of MS2 coat protein: 15.7 nM
[2]
  apparent KD of MS2 coat protein: 25.7 nM

## AAAAAACAUGAGGAUCACCCAUGUCGAAAGACGUGAGGAUAUGUACAGACUUCGGUCUGUACAGAAGGCACGAAAA [SS1 - 1038]
[1]
  apparent KD of MS2 coat protein: 18.5 nM
[2]
  apparent KD of MS2 coat protein: 60.4 nM

## AAAAAACAUGAGGAUCACCCAUGUCGAAAGACGUGAGGAUAUGUACAGACUUCGGUCUGUACAGAAGGCACGUCAA [SS1 - 1044]
[1]
  apparent KD of MS2 coat protein: 17.3 nM
[2]
  apparent KD of MS2 coat protein: 24.8 nM

## AAAAAACAUGAGGAUCACCCAUGUGAAAAUAUGGGAGGAUAUACAAACACGAAAGUGAAAGUAGAAGGCCUAAAAA [SS! MT 16]
[1]
  apparent KD of MS2 coat protein: 19.7 nM
[2]
  apparent KD of MS2 coat protein: 167 nM

## AAAAAACAUGAGGAUCACCCAUGUGAGAACAUGGGAGGAUAUACGAAGACGAAAGUCGAAGUAGAAGGCCUAAAAG [Garnet 79]
[1]
  apparent KD of MS2 coat protein: 994 nM
[2]
  apparent KD of MS2 coat protein: 91.2 nM

## AAAAAAUAAAAAAAGGAUAUAAAAGGUAGUACAUGAGGAUCACCCAUGUUCUACCAAAAAAUAAAAAAGAAGGAAAAAUAAAAAA [SS2: MS2 15]
[1]
  apparent KD of MS2 coat protein: 17.6 nM
[2]
  apparent KD of MS2 coat protein: 16.4 nM

## AAAACACAUGAGGAUCACCCAUGUGCCUAACUCGCAGGAUAUUUCUCGAUUAAAUGAUAGGAAGAAGGGUGAUAAA [Nob's Hobby 37 - Jieux - Same State 1]
[1]
  apparent KD of MS2 coat protein: 110 nM
[2]
  apparent KD of MS2 coat protein: 39.4 nM

## AAAAGACAUGAGGAUCACCCAUGUAAAAACGUAGGAGGAUAUGUCUUGAAAAAAGACUUGACAGAAGGCCUGUGUC [SS1 - 53]
[1]
  apparent KD of MS2 coat protein: 23 nM
[2]
  apparent KD of MS2 coat protein: 34.6 nM

## AAAAGACAUGAGGAUCACCCAUGUAAAGACGUAGGAGGAUAUGUCGUGAAAAAAGACUUGGCAGAAGGCCUGUGUC [SS1 - 40]
[1]
  apparent KD of MS2 coat protein: 21.4 nM
[2]
  apparent KD of MS2 coat protein: 26.6 nM

## AAAAGACAUGAGGAUCACCCAUGUCAAAACGUAGGAGGAUAUGUAUGGAAAACAUGCUGUACAGAAGGCCUGUGUC [SS1 - 28]
[1]
  apparent KD of MS2 coat protein: 14.2 nM
[2]
  apparent KD of MS2 coat protein: 17 nM

## AAAAGACAUGAGGAUCACCCAUGUCAAAAGACAUGAGGAUAUGUACAGACUUCGGUCUGUACAGAAGGCAUGUAAA [SS1 - 1069]
[1]
  apparent KD of MS2 coat protein: 16.3 nM
[2]
  apparent KD of MS2 coat protein: 21.6 nM

## AAAAGACAUGAGGAUCACCCAUGUGAAAACGUAGGAGGAUAUGUCGUGAAAAAAGACUUGGCAGAAGGCCUGUGUC [SS1 - 43]
[1]
  apparent KD of MS2 coat protein: 47 nM
[2]
  apparent KD of MS2 coat protein: 90.7 nM

## AAAAGACAUGAGGAUCACCCAUGUGAAAACGUGCGAGGAUAUGUAUGGAAACUAUACUGUACAGAAGGCGCGUGUC [SS1 - 82]
[1]
  apparent KD of MS2 coat protein: 19.7 nM
[2]
  apparent KD of MS2 coat protein: 25.4 nM

## AAAAGGGCGACACAGGAUAUGUUGACCCUAACAUGAGGAUCACCCAUGUGCAUUUAGGGUCGUGCGCAGAAGGGUGCAGCUCGGA [Enatin]
[1]
  apparent KD of MS2 coat protein: 21.1 nM
[2]
  apparent KD of MS2 coat protein: 41.8 nM

## AAAAUACAUGAGGAUCACCCAUGUGAGAAAAACGCAGGAUAUGCCCGUUGAAAAAGGCGGGCAGAAGGGUGCCGAA [SameState1-III]
[1]
  apparent KD of MS2 coat protein: 69.8 nM
[2]
  apparent KD of MS2 coat protein: 50.6 nM

## AAACCACAUGAGGAUCACCCAUGUGAAAAAAAUACAGGAUAUGGAAACACGAAAGUGAAACCAGAAGGGUGAAAAA [77%, Mat - Mod of Eli, 28]
[1]
  apparent KD of MS2 coat protein: 13.4 nM
[2]
  apparent KD of MS2 coat protein: 16.6 nM

## AAAGAAGAAAGUCAGGAUAUGGAUGGGUAAACAUGAGGAUCACCCAUGUAUAAGAAAGAAAGAAACCAGAAGGGACAAAAGAAAA [Artaxerxes III]
[1]
  apparent KD of MS2 coat protein: 34.6 nM
[2]
  apparent KD of MS2 coat protein: 135 nM

## AAAGACACAGUGCAGGAUAUAGUAAUAGUCACAUGAGGAUCACCCAUGUUCUUUUAUAAGAACGAUUAGAAGGGCGGUGAAAAAA [SameState2 Malc#11]
[1]
  apparent KD of MS2 coat protein: 161 nM
[2]
  apparent KD of MS2 coat protein: 383 nM

## AAAGACAUGGUGUAGGAUAUAUUAAUAGUCACAUGAGGAUCACCCAUGUUCAGAUAUCUGAACGAGUAGAAGGACGAUGAAAAAA [SameState2 Malc#4]
[1]
  apparent KD of MS2 coat protein: 251 nM
[2]
  apparent KD of MS2 coat protein: 130 nM

## AAAUAAAGGACUGAGGAUAUACCACAUGAAACAUGAGGAUCACCCAUGUAGAAAUACAGAGGGUGGUAGAAGGCAGUCCACAAAC [Same State 2.5h ( so lets mod hyphema)]
[1]
  apparent KD of MS2 coat protein: 30.1 nM
[2]
  apparent KD of MS2 coat protein: 57.2 nM

## AAAUAAAGGACUGAGGAUAUACCACAUGAAACAUGAGGAUCACCCAUGUUAAAAAACAGAGGGUGGUAGAAGGCAGUCCACAAAC [Same State 2.5e ( so lets mod hyphema)]
[1]
  apparent KD of MS2 coat protein: 17.9 nM
[2]
  apparent KD of MS2 coat protein: 15.8 nM

## AAAUAGUGCCUGGAGGAUAUGUCGCAUGACACAUGAGGAUCACCCAUGUGGUAACACAGAGGGUGGCAGAAGGCUGGGUGCAAAC [Mod 4 of Pariah 6 (Round1) by Hyphema]
[1]
  apparent KD of MS2 coat protein: 27.4 nM
[2]
  apparent KD of MS2 coat protein: 260 nM

## GGUUGUGAAGGAUAUACAUGAGGAUCACCCAUGUGAGAGAAAAAAGUGAGAAAGAAAAGUAGAAGGUCAUGACG [salish99-ex3-64]
[3]
  apparent KD of MS2 coat protein: 30.8 nM
[4]
  apparent KD of MS2 coat protein: 76.2 nM

## UAAAACAGAGGAUAUACAUGAGGAUCACCCAUGUAAAAAUGUAGAAGGCUGAAAUAAAUAAGAAGGAAAUAAAA [Meechl Ex3 R2 m1]
[3]
  apparent KD of MS2 coat protein: 24.8 nM
[4]
  apparent KD of MS2 coat protein: 25.6 nM

## UAAAGACAUGAGGAUCACCCAUGUGAGGAUAUAGGUGUAUGCAAAAAAAAGCAAAAAACUAGAAGGCACAGAAA [JR_Exc001_Sub304]
[3]
  apparent KD of MS2 coat protein: 59.6 nM
[4]
  apparent KD of MS2 coat protein: 68.9 nM

## UAUGAGCGAGGAUAUGCUUGGGACGUCGUUCUUGCGGCGAGACAUGAGGAUCACCCAUGUAGAAGGCGCGAGCG [Harteesian Twist]
[3]
  apparent KD of MS2 coat protein: 17.4 nM
[4]
  apparent KD of MS2 coat protein: 16.7 nM

## UCAGGUGGAGGAUAUACAGCUCGAUCCUGGAAUAAAACGGCACAUGAGGAUCACCCAUGUAGAAGGCCACAAAA [Texeussoat]
[3]
  apparent KD of MS2 coat protein: 18.9 nM
[4]
  apparent KD of MS2 coat protein: 55.1 nM

## UCCAGACAUGAGGAUCACCCAUGUCAGGAUAUCUACAGAACCUCAUGUAAAAAACUGUAGAGAAGGGAUAUGAA [Design 97: Pseudoknot G]
[3]
  apparent KD of MS2 coat protein: 16.7 nM
[4]
  apparent KD of MS2 coat protein: 16 nM

## UCCUCACAUGAGGAUCACCCAUGUGAGGAUAUGUACAUCAGGAAAAAAAAACUGAUGUACAGAAGGCACAUGAA [Design 10: Super Stable G-C 3]
[3]
  apparent KD of MS2 coat protein: 13.3 nM
[4]
  apparent KD of MS2 coat protein: 16.5 nM

## UCGAUGUCAGGAUAUGUGUAAAGAAUAAAACAAAUAACAACACAGAAGGGACAUGAGGAUCACCCAUGUUACGA [May 42]
[3]
  apparent KD of MS2 coat protein: 42.2 nM
[4]
  apparent KD of MS2 coat protein: 86.2 nM

## UUAGAACAUGAGGAUCACCCAUGUGAGGAUAUGCAAUACUAAAAUUAAGAUAAUUAUAGCAGAAGGCACGUAGU [JR_EXc001_Sub804]
[3]
  apparent KD of MS2 coat protein: 33.2 nM
[4]
  apparent KD of MS2 coat protein: 40.9 nM
